{
  "source": "paper PMC8481183",
  "about": "“Resonance assignment of coiled-coil 3 (CC3) domain of human STIM1” (Biomolecular Nmr Assignments, 2021)",
  "proteins": {"B1": {"name": "human STIM1 coiled-coil3 (CC3) fragment (amino acids 388–430) (domain or fragment, UniProt Q13586 388-430, looked up)", "chain": "NTLFGTFHVAHSSSLDDVDHKILTAKQALSEVTAALRERLHRW", "notes": "Cloned in pGEX 4T-1 (GST tag with thrombin cleavage site); The NMR sample was 15N/13C labelled; Purification follows Rathner et al. 2018; also called STIM1 CC3; CC3 domain; source: E. coli BL21, purified (protocol of Rathner et al. 2018, slightly modified)"}},
  "molecular_target": "the molecule itself",
  "assay": "circular dichroism; STIM1 CC3 alone in 20 mM Bis-Tris, pH 6.0, without TFE, 20 °C; ratio [CD]222/[CD]208 as coiled-coil index",
  "data": [
    {"protein": "B1", "values": [
      {"measurement": "binding result", "value": "binds"}
    ]}
  ]
}
